Data on four molecules can be found in article PMC7092865.

In series [1] the target is T1, SUDc5b (SARS coronavirus TOR2, UniProt P0C6U8 1207-1380). In words: zone-interference gel electrophoresis.
Series [2] deals with T1, SUDc5b. Put plainly: EMSA. Background: A gel shift assay detects complexes by their altered migration in electrophoresis.
Series [3] concerns the target T2, SUD full-length (Nsp3c) (SARS coronavirus TOR2, UniProt P0C6U8 1167-1544). Put plainly: EMSA.
Series [4] deals with T2, SUD full-length (Nsp3c). In words: EMSA. This is another data set of the same source.
For series [5], the target named is T1, SUDc5b. Put plainly: EMSA. This is another data set of the same source.

Read-outs that look alike come from different tables or passages of the source.

B1: 3(-) (ssDNA)
DNA: ATGTAATGCGGGGGGCACTACGTT
B1: the dissociation constant (Kd) with SUDc5b [1] is around 1 µM.

B2: 2(+) (ssDNA)
DNA: CATCTATGAGGGGGGTTTACTATC
Molecule B2 returned a Kd with SUDc5b [1] of around 1 µM.

B3: bbc3-A14 RNA (ssRNA)
RNA: GGGUGACACUAAAAAAAAAAAAAACUCUCCUCUCGGUGCUCCUUCACUC
As for B3, the binding result in the series with SUDc5b [2] and with SUD full-length (Nsp3c) [3] was “no binding” in each case.

B4: bbc3-G14 RNA (ssRNA)
RNA: GGGUGACACUGGGGGGGGGGGGGGCUCUCCUCUCGGUGCUCCUUCACUC
As for B4, the binding result in the series with SUD full-length (Nsp3c) [4] and with SUDc5b [5] was “binds” each time.

As usually defined, the Kd is the free concentration of one partner at which half of the binding sites on the other are occupied at equilibrium, for simple one-to-one binding. A low value points to a tighter complex.
